Data: US20200399381A1 (I MAB BIOPHARMA US, published 2020)

T1: human IFNAR-1 protein (form not stated) (human, UniProt P17181 28-436, limits assumed)
T1 construct: bispecific ELISA
T1 sequence (looked up): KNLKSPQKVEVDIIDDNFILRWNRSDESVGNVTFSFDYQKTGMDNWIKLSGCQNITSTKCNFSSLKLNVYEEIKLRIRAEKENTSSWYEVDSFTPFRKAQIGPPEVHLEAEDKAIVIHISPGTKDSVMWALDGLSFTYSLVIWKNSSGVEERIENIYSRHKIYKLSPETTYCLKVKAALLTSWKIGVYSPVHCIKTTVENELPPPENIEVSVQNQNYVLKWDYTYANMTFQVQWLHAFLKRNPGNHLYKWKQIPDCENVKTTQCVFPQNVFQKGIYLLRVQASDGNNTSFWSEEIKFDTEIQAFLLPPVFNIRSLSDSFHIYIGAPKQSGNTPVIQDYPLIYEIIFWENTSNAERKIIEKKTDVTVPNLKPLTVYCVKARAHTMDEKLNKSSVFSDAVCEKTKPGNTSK


Tests used:
[1] = target: T1, human IFNAR-1 protein (form not stated); experiment: affinity ranking of expressed humanized 485G10 IgGs (method not named)
[2] = target: T1, human IFNAR-1 protein (form not stated); experiment: affinity ranking of expressed humanized 8G11 IgGs (method not named)

Kd [1]	koff [1]	kon [1]	Kd [2]	koff [2]	kon [2]	Binder
9.33 nM	0.00475 s⁻¹	509000 M⁻¹ s⁻¹	–	–	–	485G10 humanized VH0 + VL1 (antibody, V domains shown, Humanized IgG expressed in HEK293; also called VH0 + VL1 (485G10)) VH: QVQLVQSGAEVKKPGASVKVSCKASGFNIKDYYIHWVRQAPGQGLEWMGRIDPEDAETKYAPKFQGRVTMTRDTSISTAYMELSRLRSDDTVVYYCARYHGYWALDYWGQGTLVTVSS VL: DIQMTQSPSSLSASVGDRVTITCKTSQNVGTNVAWFQQKPGKAPKSLIYSTSYRYSGVPSRFSGSGSGTDFTLTISSLQPEDFATYYCHQYFSYPYTFGPGTKVDIK
19.1 nM	0.0185 s⁻¹	971000 M⁻¹ s⁻¹	–	–	–	485G10 humanized VH3 + VL1 (antibody, V domains shown, Humanized IgG expressed in HEK293; also called VH3 + VL1 (485G10)) VH: QVQLVQSGAEVKKPGASVKLSCKGSGFNIKDYYIHWVKQAPGQGLEWIGRIDPEDAETKYAPKFQGRATITADTSISTAYLELSRLRSDDTVVYYCGRYHGYWALDYWGQGTLVTVSS VL: DIQMTQSPSSLSASVGDRVTITCKTSQNVGTNVAWFQQKPGKAPKSLIYSTSYRYSGVPSRFSGSGSGTDFTLTISSLQPEDFATYYCHQYFSYPYTFGPGTKVDIK
1.07 nM	0.000316 s⁻¹	294000 M⁻¹ s⁻¹	–	–	–	485G10 humanized VH0 + VL3 (antibody, V domains shown, Humanized IgG expressed in HEK293; also called VH0 + VL3 (485G10)) VH: QVQLVQSGAEVKKPGASVKVSCKASGFNIKDYYIHWVRQAPGQGLEWMGRIDPEDAETKYAPKFQGRVTMTRDTSISTAYMELSRLRSDDTVVYYCARYHGYWALDYWGQGTLVTVSS VL: DIQMTQSPSSLSTSVGDRVTITCKTSQNVGTNVAWYQQKPGKAPKPLIYSTSYRYSGVPSRFSGSGSGTDFTLTISSVQPEDFATYYCHQYFSYPYTFGPGTKLDIK
0.766 nM	0.000271 s⁻¹	354000 M⁻¹ s⁻¹	–	–	–	485G10 humanized VH3 + VL4 (antibody, V domains shown, Humanized IgG expressed in HEK293; also called VH3 + VL4 (485G10)) VH: QVQLVQSGAEVKKPGASVKLSCKGSGFNIKDYYIHWVKQAPGQGLEWIGRIDPEDAETKYAPKFQGRATITADTSISTAYLELSRLRSDDTVVYYCGRYHGYWALDYWGQGTLVTVSS VL: DIQMTQSPSSLSTSVGDRVTVTCKTSQNVGTNVAWYQQKPGKAPKPLIYSTSYRYSGVPSRFSGSGSGTDFTLTISSVQPEDFATYYCHQYFSYPYTFGPGTKLDIK
1.25 nM	0.000318 s⁻¹	255000 M⁻¹ s⁻¹	–	–	–	485G10 humanized VH0 + VL4 (antibody, V domains shown, Humanized IgG expressed in HEK293; also called VH0 + VL4 (485G10)) VH: QVQLVQSGAEVKKPGASVKVSCKASGFNIKDYYIHWVRQAPGQGLEWMGRIDPEDAETKYAPKFQGRVTMTRDTSISTAYMELSRLRSDDTVVYYCARYHGYWALDYWGQGTLVTVSS VL: DIQMTQSPSSLSTSVGDRVTVTCKTSQNVGTNVAWYQQKPGKAPKPLIYSTSYRYSGVPSRFSGSGSGTDFTLTISSVQPEDFATYYCHQYFSYPYTFGPGTKLDIK
0.841 nM	0.000279 s⁻¹	332000 M⁻¹ s⁻¹	–	–	–	485G10 humanized VH3 + VL3 (antibody, V domains shown, Humanized IgG expressed in HEK293; also called VH3 + VL3 (485G10)) VH: QVQLVQSGAEVKKPGASVKLSCKGSGFNIKDYYIHWVKQAPGQGLEWIGRIDPEDAETKYAPKFQGRATITADTSISTAYLELSRLRSDDTVVYYCGRYHGYWALDYWGQGTLVTVSS VL: DIQMTQSPSSLSTSVGDRVTITCKTSQNVGTNVAWYQQKPGKAPKPLIYSTSYRYSGVPSRFSGSGSGTDFTLTISSVQPEDFATYYCHQYFSYPYTFGPGTKLDIK
1.57 nM	0.000439 s⁻¹	279000 M⁻¹ s⁻¹	–	–	–	485G10 humanized VH0 + VL2 (antibody, V domains shown, Humanized IgG expressed in HEK293; also called VH0 + VL2 (485G10)) VH: QVQLVQSGAEVKKPGASVKVSCKASGFNIKDYYIHWVRQAPGQGLEWMGRIDPEDAETKYAPKFQGRVTMTRDTSISTAYMELSRLRSDDTVVYYCARYHGYWALDYWGQGTLVTVSS VL: DIQMTQSPSSLSTSVGDRVTITCKTSQNVGTNVAWYQQKPGKAPKPLIYSTSYRYSGVPSRFSGSGSGTDFTLTISSLQPEDFATYYCHQYFSYPYTFGPGTKVDIK
3.14 nM	0.00103 s⁻¹	328000 M⁻¹ s⁻¹	–	–	–	485G10 humanized VH1 + VL1 (antibody, V domains shown, Humanized IgG expressed in HEK293; also called VH1 + VL1 (485G10)) VH: QVQLVQSGAEVKKPGASVKVSCKASGFNIKDYYIHWVRQAPGQGLEWMGRIDPEDAETKYAPKFQGRVTMTADTSISTAYMELSRLRSDDTVVYYCARYHGYWALDYWGQGTLVTVSS VL: DIQMTQSPSSLSASVGDRVTITCKTSQNVGTNVAWFQQKPGKAPKSLIYSTSYRYSGVPSRFSGSGSGTDFTLTISSLQPEDFATYYCHQYFSYPYTFGPGTKVDIK
0.99 nM	0.0003 s⁻¹	303000 M⁻¹ s⁻¹	–	–	–	485G10 humanized VH2 + VL4 (antibody, V domains shown, Humanized IgG expressed in HEK293; also called VH2 + VL4 (485G10)) VH: QVQLVQSGAEVKKPGASVKLSCKASGFNIKDYYIHWVKQAPGQGLEWIGRIDPEDAETKYAPKFQGRVTMTADTSISTAYMELSRLRSDDTVVYYCGRYHGYWALDYWGQGTLVTVSS VL: DIQMTQSPSSLSTSVGDRVTVTCKTSQNVGTNVAWYQQKPGKAPKPLIYSTSYRYSGVPSRFSGSGSGTDFTLTISSVQPEDFATYYCHQYFSYPYTFGPGTKLDIK
0.906 nM	0.000298 s⁻¹	329000 M⁻¹ s⁻¹	–	–	–	485G10 humanized VH2 + VL2 (antibody, V domains shown, Humanized IgG expressed in HEK293; also called VH2 + VL2 (485G10)) VH: QVQLVQSGAEVKKPGASVKLSCKASGFNIKDYYIHWVKQAPGQGLEWIGRIDPEDAETKYAPKFQGRVTMTADTSISTAYMELSRLRSDDTVVYYCGRYHGYWALDYWGQGTLVTVSS VL: DIQMTQSPSSLSTSVGDRVTITCKTSQNVGTNVAWYQQKPGKAPKPLIYSTSYRYSGVPSRFSGSGSGTDFTLTISSLQPEDFATYYCHQYFSYPYTFGPGTKVDIK
20.5 nM	0.00663 s⁻¹	323000 M⁻¹ s⁻¹	–	–	–	485G10 humanized VH2 + VL1 (antibody, V domains shown, Humanized IgG expressed in HEK293; also called VH2 + VL1 (485G10)) VH: QVQLVQSGAEVKKPGASVKLSCKASGFNIKDYYIHWVKQAPGQGLEWIGRIDPEDAETKYAPKFQGRVTMTADTSISTAYMELSRLRSDDTVVYYCGRYHGYWALDYWGQGTLVTVSS VL: DIQMTQSPSSLSASVGDRVTITCKTSQNVGTNVAWFQQKPGKAPKSLIYSTSYRYSGVPSRFSGSGSGTDFTLTISSLQPEDFATYYCHQYFSYPYTFGPGTKVDIK
0.864 nM	0.000264 s⁻¹	306000 M⁻¹ s⁻¹	–	–	–	485G10 humanized VH3 + VL2 (antibody, V domains shown, Humanized IgG expressed in HEK293; also called VH3 + VL2 (485G10)) VH: QVQLVQSGAEVKKPGASVKLSCKGSGFNIKDYYIHWVKQAPGQGLEWIGRIDPEDAETKYAPKFQGRATITADTSISTAYLELSRLRSDDTVVYYCGRYHGYWALDYWGQGTLVTVSS VL: DIQMTQSPSSLSTSVGDRVTITCKTSQNVGTNVAWYQQKPGKAPKPLIYSTSYRYSGVPSRFSGSGSGTDFTLTISSLQPEDFATYYCHQYFSYPYTFGPGTKVDIK
–	–	–	0.364 nM	0.00011 s⁻¹	301000 M⁻¹ s⁻¹	8G11 humanized VH3 + VL3 (antibody, V domains shown, Humanized IgG expressed in HEK293; also called VH3 + VL3 (8G11)) VH: QVQLVQSGAEVVKPGASVKVSCKGSGFNIKDYYMHWVKQAPGQGLEWIGRIDPEDAETKYAPKFQGRVTITADTSTSTVYLELSSLRSEDTAVYYCARGGNFYVMDYWGQGTLVTVSS VL: DIQLTQSPSFLSTSVGDRVTITCKASQNVGTNVVWYQQKPGKSPKVLIYSASYRVSGVPSRFSGSGSGTEFTLIISSVQPEDFATYFCQQKNNYPYTFGQGTKLEIK
–	–	–	0.364 nM	9.65e-05 s⁻¹	265000 M⁻¹ s⁻¹	8G11 humanized VH2 + VL3 (antibody, V domains shown, Humanized IgG expressed in HEK293; also called VH2 + VL3 (8G11)) VH: QVQLVQSGAEVVKPGASVKVSCKGSGFNIKDYYMHWVRQAPGQGLEWIGRIDPEDAETKYAPKFQGRVTMTADTSTSTVYMELSSLRSEDTAVYYCARGGNFYVMDYWGQGTLVTVSS VL: DIQLTQSPSFLSTSVGDRVTITCKASQNVGTNVVWYQQKPGKSPKVLIYSASYRVSGVPSRFSGSGSGTEFTLIISSVQPEDFATYFCQQKNNYPYTFGQGTKLEIK
–	–	–	0.836 nM	0.000141 s⁻¹	169000 M⁻¹ s⁻¹	8G11 humanized VH1 + VL4 (antibody, V domains shown, Humanized IgG expressed in HEK293; also called VH1 + VL4 (8G11)) VH: QVQLVQSGAEVKKPGASVKVSCKASGFNIKDYYMHWVRQAPGQGLEWMGRIDPEDAETKYAPKFQGRVTMTRDTSTSTVYMELSSLRSEDTAVYYCARGGNFYVMDYWGQGTLVTVSS VL: DIQMTQSPSFLSTSVGDRVTVTCKASQNVGTNVVWYQQKPGKSPKVLIYSASYRVSGVPSRFSGSGSGTEFTLIISSVQPEDFATYFCQQKNNYPYTFGQGTKLEIK
–	–	–	0.865 nM	0.0002 s⁻¹	231000 M⁻¹ s⁻¹	8G11 humanized VH1 + VL3 (antibody, V domains shown, Humanized IgG expressed in HEK293; also called VH1 + VL3 (8G11)) VH: QVQLVQSGAEVKKPGASVKVSCKASGFNIKDYYMHWVRQAPGQGLEWMGRIDPEDAETKYAPKFQGRVTMTRDTSTSTVYMELSSLRSEDTAVYYCARGGNFYVMDYWGQGTLVTVSS VL: DIQLTQSPSFLSTSVGDRVTITCKASQNVGTNVVWYQQKPGKSPKVLIYSASYRVSGVPSRFSGSGSGTEFTLIISSVQPEDFATYFCQQKNNYPYTFGQGTKLEIK
–	–	–	0.388 nM	0.000102 s⁻¹	262000 M⁻¹ s⁻¹	8G11 humanized VH2 + VL4 (antibody, V domains shown, Humanized IgG expressed in HEK293; also called VH2 + VL4 (8G11)) VH: QVQLVQSGAEVVKPGASVKVSCKGSGFNIKDYYMHWVRQAPGQGLEWIGRIDPEDAETKYAPKFQGRVTMTADTSTSTVYMELSSLRSEDTAVYYCARGGNFYVMDYWGQGTLVTVSS VL: DIQMTQSPSFLSTSVGDRVTVTCKASQNVGTNVVWYQQKPGKSPKVLIYSASYRVSGVPSRFSGSGSGTEFTLIISSVQPEDFATYFCQQKNNYPYTFGQGTKLEIK
–	–	–	0.765 nM	0.000127 s⁻¹	167000 M⁻¹ s⁻¹	8G11 humanized VH1 + VL2 (antibody, V domains shown, Humanized IgG expressed in HEK293; also called VH1 + VL2 (8G11)) VH: QVQLVQSGAEVKKPGASVKVSCKASGFNIKDYYMHWVRQAPGQGLEWMGRIDPEDAETKYAPKFQGRVTMTRDTSTSTVYMELSSLRSEDTAVYYCARGGNFYVMDYWGQGTLVTVSS VL: DIQLTQSPSFLSTSVGDRVTITCKASQNVGTNVVWYQQKPGKSPKVLIYSASYRVSGVPSRFSGSGSGTEFTLIISSLQPEDFATYYCQQKNNYPYTFGQGTKLEIK
